Measurements from patent US20080293632, “Use of natriuretic peptides for the treatment of stature disorders related to shox gene” (Gudrun RAPPOLD-HOERBRAND, published 2008).

Tests used:
SHOX full length = SHOX full length (Homo sapiens, UniProt O15266 O15266:1-292); test: ChIP with SHOX antibody, U2OS cells, quantitative PCR; conditions: tags: tetracycline-inducible in U2OS cells
Description: Hereby U2OS cells, which express the SHOX gene for 48 hours, were treated with formaldehyde to allow fixation of the DNA binding proteins to the DNA. The cell chromatin was isolated and the fixed DNA precipitated together with SHOX through addition of a SHOX specific antibody. For controls, […] or water was used instead of the antibody. The precipitated DNA was analyzed by quantitative RT-PCR for an accumulation of SHOX binding sites in the putative regulatory region of the BNP gene.

[1] = biological target: T1, SHOX-GST (GST-SHOX-STM, SHOX aa 1-194) (Homo sapiens, UniProt O15266 O15266:1-194); test: EMSA; five-nucleotide replacement, entire loss of binding; conditions: tags: N-terminal GST (pGEX, E. coli); chain copies: monomer at low, homodimer at high concentration (stated); label: 32P; 5' overhangs filled in
Excerpt: (§1) To create double stranded DNA for mobility shift assays two complementary oligonucleotides were annealed, generating 5′ overhangs on each side to permit radiolabelling using the Taq polymerase. The following oligonucleotides were used in the shift experiments (only the forward strand of the probes are given, putative binding site in bold, mutagenized nucleotides underlined): BNP-1220 Wt: […] [SEQ ID NO: 10]; BNP-1220a: […] [SEQ ID NO: 11]; BNP-1220b: […] [SEQ ID NO: 12]; BNP-1220c: […] [SEQ ID NO: 13]; BNP-600Wt: […] [SEQ ID NO: 14]; BNP-600a: […] CAT [SEQ ID NO: 15]; BNP-600b: […] [SEQ ID NO: 16].
Gel Shift reactions contained 15 mM Hepes pH 7.5, 150 mM NaCl, 1 mM EDTA, 0.5 mM DTT, 0.05% NP-40, 7.5% glycerol, 0.25 mg/ml bovine serum albumin, 1.5 μg poly(dI-dC) and the appropriate ³²P-labelled probe. After addition of protein extract the samples were incubated for 10 min at room temperature. Separation was performed on a 5% nondenaturing polyacrylamide gel with 0.25×TBE at 12 V/cm at room temperature for 50 min. Gels were then dried and exposed overnight at −80° C. […] In competition experiments, varying amounts of unlabelled competitor DNA were added to the samples preceding addition of protein extracts. In supershift experiments, 3 μg of anti-human SHOX-3-specific antibody were applied to the samples and preincubated for 15 min on ice prior separation for 2 h at 12 V/cm and 8° C.

[2] = biological target: T1, SHOX-GST (GST-SHOX-STM, SHOX aa 1-194); test: EMSA; conditions: tags: N-terminal GST (pGEX, E. coli); chain copies: monomer at low, homodimer at high concentration (stated); label: 32P; 5' overhangs filled in
Description: (§2) FIG. 2A: 10 fmol of ³²P-radiolabelled double-stranded oligonucleotide containing the putative proximal binding site of SHOX was incubated with 0, 0.05, 0.5 and 3 μl purified SHOX-GST (250 nM). Monomeric binding of SHOX-GST could be observed with volumes of 0.05 and 0.5 μl, an increase in SHOX-GST concentration led to the formation of homeodimers.
as §1
(§3) Gel Shift reactions contained 15 mM Hepes pH 7.5, 150 mM NaCl, 1 mM EDTA, 0.5 mM DTT, 0.05% NP-40, 7.5% glycerol, 0.25 mg/ml bovine serum albumin, 1.5 μg poly(dI-dC) and the appropriate ³²P-labelled probe. After addition of protein extract the samples were incubated for 10 min at room temperature. Separation was performed on a 5% nondenaturing polyacrylamide gel with 0.25×TBE at 12 V/cm at room temperature for 50 min. […]

[3] = biological target: T1, SHOX-GST (GST-SHOX-STM, SHOX aa 1-194); test: EMSA; five-nucleotide replacement, entire loss of binding; conditions: tags: N-terminal GST (pGEX, E. coli); chain copies: monomer at low, homodimer at high concentration (stated); label: 32P; 5' overhangs filled in; remark: listed apart in the source
Description: To test the sequence specificity of the SHOX DNA binding, SHOX-GST was incubated with oligonucleotides containing artificially introduced mutations in the putative SHOX binding site. Nucleotides differing from the wild-type sequence (Wt) are highlighted in green (BNP-1220a, BNP-1220b, BNP-1220c).
as §1
as §3, with “min. Gels were then dried and exposed overnight at −80° C.” for “min.”

[4] = biological target: T1, SHOX-GST (GST-SHOX-STM, SHOX aa 1-194); test: EMSA; conditions: tags: N-terminal GST (pGEX, E. coli); chain copies: monomer at low, homodimer at high concentration (stated); label: 32P; 5' overhangs filled in; remark: listed apart in the source
Description: as §2, with “3A:” for “2A:”, “double stranded” for “double-stranded”, “distal” for “proximal”
as §1, §3

T1 sequence (O15266 1-194, one chain of several): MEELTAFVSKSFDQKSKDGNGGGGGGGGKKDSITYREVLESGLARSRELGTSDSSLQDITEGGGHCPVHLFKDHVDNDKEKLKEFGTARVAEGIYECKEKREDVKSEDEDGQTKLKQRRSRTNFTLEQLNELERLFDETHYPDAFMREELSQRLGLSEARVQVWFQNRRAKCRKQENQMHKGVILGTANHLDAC
SHOX full length, sequence (O15266 whole entry, one chain of several): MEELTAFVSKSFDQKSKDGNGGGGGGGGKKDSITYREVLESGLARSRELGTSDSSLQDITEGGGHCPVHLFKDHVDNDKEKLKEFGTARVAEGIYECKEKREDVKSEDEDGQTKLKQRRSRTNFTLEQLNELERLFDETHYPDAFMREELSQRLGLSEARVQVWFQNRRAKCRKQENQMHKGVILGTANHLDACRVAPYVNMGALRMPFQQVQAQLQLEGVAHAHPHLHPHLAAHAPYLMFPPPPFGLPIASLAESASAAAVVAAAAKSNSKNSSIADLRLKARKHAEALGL

B1: BNP-1220 chromatin region (dsDNA)
DNA 1: TAATGATAATTA
DNA 2: TAATTATCATTA
B1 was tested, and the binding signal (SHOX full length) was 301 fold enrichment.

B2: BNP-600b (dsDNA)
DNA 1: GGGTTCCTGGTCATACCCAGGCTTTTGGGGAAGGGCCACTGGGGAATCAGCAT
DNA 2: ATGCTGATTCCCCAGTGGCCCTTCCCCAAAAGCCTGGGTATGACCAGGAACCC
B2: no binding [1].

B3: BNP-600 Wt (dsDNA)
DNA 1: TTCCTGGTCATACCCAGGCTTTTAATGAATTGCCACTGGGGAATCAGCAT
DNA 2: ATGCTGATTCCCCAGTGGCAATTCATTAAAAGCCTGGGTATGACCAGGAA
B3: binds [2].

B4: BNP-600 chromatin region (dsDNA)
DNA 1: TAATGAATTG
DNA 2: CAATTCATTA
In the case of B4, the binding signal (SHOX full length) is reported as 428 fold enrichment.

B5: BNP-1220c (dsDNA)
DNA 1: GGGTCACCAGGCCACCTGCTCCCGATACCTAGATCATGGGTGGTCAGATG
DNA 2: CATCTGACCACCCATGATCTAGGTATCGGGAGCAGGTGGCCTGGTGACCC
B5: no binding [3].

B6: BNP-1220 Wt (dsDNA)
DNA 1: TAATCACCAGGCCACCTGCTAATGATAATTAGATCATGGGTGGTCAGATG
DNA 2: CATCTGACCACCCATGATCTAATTATCATTAGCAGGTGGCCTGGTGATTA
B6: binds [4].
